The values below come from publication PMC9569990 (International Journal of Molecular Sciences, 2022).

Common to all, as to assay: SPR; cytokine immobilised on ProteOn GLH sensor chip by amine coupling (9,000-14,000 RU); S100P (wild type or mutant) as analyte, 62 nM-16 µM; 25 °C; 10 mM HEPES, 150 mM NaCl, 1 mM CaCl2, 0.05% TWEEN 20, pH 7.4; heterogeneous ligand model (two ligand populations), one-site model for IL-13; values averaged over analyte concentrations (n = 3-5)
What all share (conditions): both partners purified
For orientation: In SPR one partner is held on a chip, and binding of the other changes the refractive index at the surface.

One test has as its target T1, Interleukin-31 (human, UniProt Q6EBC2 24-164).
T1 construct: Interleukin-31, human, UniProt Q6EBC2; see the manufacturer's catalogue number; also called IL-31; source: bought: PeproTech (source E. coli)
T1 sequence (looked up): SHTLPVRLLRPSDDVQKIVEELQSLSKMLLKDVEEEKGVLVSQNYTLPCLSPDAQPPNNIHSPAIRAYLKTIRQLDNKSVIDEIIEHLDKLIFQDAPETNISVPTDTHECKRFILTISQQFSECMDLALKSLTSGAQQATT

The target of the next test is T2, Interleukin-35 (human, UniProt P29459 23-219; Q14213 21-229).
T2 construct: the chain used for the SCOP family assignment; also called IL-35; source: bought: PeproTech (source HEK293)
T2 sequence (looked up) 1: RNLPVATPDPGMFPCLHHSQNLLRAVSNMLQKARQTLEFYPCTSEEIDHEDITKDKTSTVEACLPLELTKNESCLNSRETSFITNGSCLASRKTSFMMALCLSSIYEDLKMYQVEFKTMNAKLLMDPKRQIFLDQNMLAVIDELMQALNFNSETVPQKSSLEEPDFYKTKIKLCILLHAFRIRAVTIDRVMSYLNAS
T2 sequence (looked up) 2: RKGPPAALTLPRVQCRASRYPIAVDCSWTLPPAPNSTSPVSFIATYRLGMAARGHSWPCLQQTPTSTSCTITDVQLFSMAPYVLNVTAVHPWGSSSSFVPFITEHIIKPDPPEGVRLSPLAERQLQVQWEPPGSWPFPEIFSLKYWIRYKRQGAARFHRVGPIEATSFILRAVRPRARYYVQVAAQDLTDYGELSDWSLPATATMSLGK

A further test has as its target T3, Somatotropin (human, UniProt P01241 27-217).
T3 construct: Somatotropin (growth hormone), human, UniProt P01241; see the manufacturer's catalogue number; also called GH; growth hormone; source: bought: PeproTech (source E. coli)

The target in another test is T4, Growth hormone variant (human, UniProt P01242 27-217).
T4 construct: Growth hormone variant, human, UniProt P01242; see the manufacturer's catalogue number; also called GH-V; source: bought: R&D Systems (source E. coli)
T4 sequence (P01242 27-217, change not shown): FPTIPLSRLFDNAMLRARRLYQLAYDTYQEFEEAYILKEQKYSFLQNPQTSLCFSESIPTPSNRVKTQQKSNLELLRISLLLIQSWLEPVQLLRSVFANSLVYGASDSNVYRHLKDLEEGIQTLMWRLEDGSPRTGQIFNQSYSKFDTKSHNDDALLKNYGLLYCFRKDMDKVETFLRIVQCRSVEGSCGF

A further test concerns the target T5, Leptin (human, UniProt P41159 22-167).
T5 construct: Leptin, human, UniProt P41159; see the manufacturer's catalogue number; source: bought: PeproTech (source E. coli)

Another test deals with T6, Interleukin-10 (human, UniProt P22301 19-178).
T6 construct: Interleukin-10, human, UniProt P22301; see the manufacturer's catalogue number; also called IL-10; source: bought: PeproTech (source E. coli)
T6 sequence (P22301 19-178): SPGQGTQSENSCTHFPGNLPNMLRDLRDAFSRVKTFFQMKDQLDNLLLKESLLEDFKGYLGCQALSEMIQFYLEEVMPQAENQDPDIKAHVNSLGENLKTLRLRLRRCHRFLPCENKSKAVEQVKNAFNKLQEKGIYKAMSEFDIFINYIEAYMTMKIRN

The next test concerns the target T7, Interleukin-13 (human, UniProt P35225 25-146).
T7 construct: Interleukin-13, human, UniProt P35225; see the manufacturer's catalogue number; also called IL-13; source: bought: PeproTech (source E. coli)

For the next test, the target named is T8, Interleukin-15 (human, UniProt P40933 49-162).
T8 construct: Interleukin-15, human, UniProt P40933; see the manufacturer's catalogue number; also called IL-15; source: bought: PeproTech (source E. coli)
T8 sequence (P40933 49-162): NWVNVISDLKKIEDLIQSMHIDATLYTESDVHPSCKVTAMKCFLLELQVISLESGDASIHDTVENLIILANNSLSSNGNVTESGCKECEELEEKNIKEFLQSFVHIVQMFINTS

T5 sequence (P41159 22-167): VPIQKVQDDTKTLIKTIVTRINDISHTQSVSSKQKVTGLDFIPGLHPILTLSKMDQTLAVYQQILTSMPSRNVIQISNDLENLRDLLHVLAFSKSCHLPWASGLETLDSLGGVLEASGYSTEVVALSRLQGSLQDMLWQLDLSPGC
T3 sequence (P01241 27-217): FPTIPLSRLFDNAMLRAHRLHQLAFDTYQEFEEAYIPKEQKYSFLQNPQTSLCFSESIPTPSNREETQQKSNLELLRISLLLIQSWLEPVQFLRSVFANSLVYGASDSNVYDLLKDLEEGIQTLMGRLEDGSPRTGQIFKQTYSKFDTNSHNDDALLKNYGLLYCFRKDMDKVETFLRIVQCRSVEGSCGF
T7 sequence (P35225 25-146): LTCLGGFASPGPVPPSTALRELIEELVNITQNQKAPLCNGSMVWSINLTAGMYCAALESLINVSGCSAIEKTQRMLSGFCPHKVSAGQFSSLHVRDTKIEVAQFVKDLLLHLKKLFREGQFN

B1: Human S100P mutant Δ42–47 (lacks PGFLQS sequence in the 'hinge') (natural protein)
chain: MTELETAMGMIIDVFSRYSGSEGSTQTLTKGELKVLMEKELGKDKDAVDKLLKDLDANGDAQVDFSEFIVFVAAITSACHKYFEKAGLK
notes: S100P protein, human, recombinant, with residues 42-47 (PGFLQS) deleted; source: E. coli, prepared as previously described [28]
Regarding B1, the Kd (commonly the equilibrium constant for the complex coming apart) with Interleukin-31 was greater than 100 µM; in the test with Interleukin-35, greater than 10 µM; with Somatotropin, greater than 100 µM; with Growth hormone variant, greater than 100 µM; in the test with Leptin, greater than 100 µM; with Interleukin-10, greater than 100 µM. Besides, the Kd in the test with Interleukin-13 and in the test with Interleukin-15 was greater than 100 µM throughout.

B2: Human S100P mutant F89A (natural protein)
chain: MTELETAMGMIIDVFSRYSGSEGSTQTLTKGELKVLMEKELPGFLQSGKDKDAVDKLLKDLDANGDAQVDFSEFIVFVAAITSACHKYAEKAGLK
notes: S100P protein, human, recombinant, with F89A; source: E. coli, prepared as previously described [28]
On to B2, for which the “Kd1 (heterogeneous ligand model, population 1)” value with Interleukin-31 was 202 nM; with Somatotropin, 29.2 µM; with Leptin, 4.37 µM; with Interleukin-10 it was 4.74 µM; in the test with Interleukin-15 it was 157 nM. For the same molecule, the “Kd2 (heterogeneous ligand model, population 2; column head printed as Kd1)” value with Interleukin-31 was 1.18 µM; with Somatotropin, 138 µM; with Leptin, 35.7 µM; in the test with Interleukin-10 it was 6.05 µM; in the test with Interleukin-15, 283 nM. The Kd with Interleukin-35, in the test with Growth hormone variant and with Interleukin-13 was greater than 100 µM each time.
